One may read the Kd as the constant that tells how readily two partners part at equilibrium.

The text below walks through data of patent US20030208060A1.

In test [1] the target is T1, apoE- and lipoprotein lipase-independent TGRLP receptor (apoB48R) on the surface of THP-1 monocyte-macrophages (human) (UniProt Q0VD83).
T1 sequence: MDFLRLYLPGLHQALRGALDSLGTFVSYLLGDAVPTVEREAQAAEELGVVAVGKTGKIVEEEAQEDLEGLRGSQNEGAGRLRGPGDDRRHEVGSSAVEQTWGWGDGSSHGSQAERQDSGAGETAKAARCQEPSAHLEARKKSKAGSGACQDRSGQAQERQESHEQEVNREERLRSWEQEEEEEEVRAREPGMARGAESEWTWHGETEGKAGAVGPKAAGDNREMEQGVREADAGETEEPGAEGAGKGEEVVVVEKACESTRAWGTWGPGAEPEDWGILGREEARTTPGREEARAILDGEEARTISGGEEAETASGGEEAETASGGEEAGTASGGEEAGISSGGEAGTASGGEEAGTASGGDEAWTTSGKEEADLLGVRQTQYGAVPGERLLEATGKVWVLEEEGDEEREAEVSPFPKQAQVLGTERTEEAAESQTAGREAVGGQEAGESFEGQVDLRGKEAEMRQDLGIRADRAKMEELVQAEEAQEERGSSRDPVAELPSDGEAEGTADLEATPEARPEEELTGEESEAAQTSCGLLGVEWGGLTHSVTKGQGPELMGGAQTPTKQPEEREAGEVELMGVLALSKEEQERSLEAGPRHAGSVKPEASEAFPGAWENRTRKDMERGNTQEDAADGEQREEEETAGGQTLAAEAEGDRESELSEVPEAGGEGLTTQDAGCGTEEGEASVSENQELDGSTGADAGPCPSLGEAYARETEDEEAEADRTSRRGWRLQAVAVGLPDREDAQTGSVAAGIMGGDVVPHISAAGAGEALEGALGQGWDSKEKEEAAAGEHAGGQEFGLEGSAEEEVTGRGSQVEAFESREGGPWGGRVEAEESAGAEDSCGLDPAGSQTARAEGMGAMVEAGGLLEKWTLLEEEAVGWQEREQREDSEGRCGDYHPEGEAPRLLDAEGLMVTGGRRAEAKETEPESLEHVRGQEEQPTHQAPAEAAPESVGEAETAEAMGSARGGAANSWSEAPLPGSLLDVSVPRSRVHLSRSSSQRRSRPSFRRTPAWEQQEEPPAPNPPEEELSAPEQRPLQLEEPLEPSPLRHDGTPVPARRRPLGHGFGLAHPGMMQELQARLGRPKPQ
Description: competition with 125I-tryp-VLDL1 for THP-1 macrophages; set as 100% by definition.

In test [2] the target is T1, apoE- and lipoprotein lipase-independent TGRLP receptor (apoB48R) on the surface of THP-1 monocyte-macrophages (human). Description: competition with 125I-HTG-VLDL1 for THP-1 macrophages; set as 100% by definition.
Test [3] shares this target. Description: competition with 125I-tryp-VLDL2 for THP-1 macrophages; set as 100% by definition.
Test [4] deals with MBP200R (reduced, ligand-binding form generated from MBP200 and MBP235 by 2-mercaptoethanol) (human) (UniProt Q0VD83). Description: quantitative ligand blot after reduction, Scatchard. The arrangement: Bmax: unit not given here.
The target in test [5] is LDL receptor of cultured human skin fibroblasts (upregulated) (human) (UniProt P01130). Description: binding of 125I-HTG-VLDL at 5 µg/ml to fibroblasts with induced LDL receptor, 4 °C.
Chain of LDL receptor of cultured human skin fibroblasts (upregulated) (human) (P01130 22-860): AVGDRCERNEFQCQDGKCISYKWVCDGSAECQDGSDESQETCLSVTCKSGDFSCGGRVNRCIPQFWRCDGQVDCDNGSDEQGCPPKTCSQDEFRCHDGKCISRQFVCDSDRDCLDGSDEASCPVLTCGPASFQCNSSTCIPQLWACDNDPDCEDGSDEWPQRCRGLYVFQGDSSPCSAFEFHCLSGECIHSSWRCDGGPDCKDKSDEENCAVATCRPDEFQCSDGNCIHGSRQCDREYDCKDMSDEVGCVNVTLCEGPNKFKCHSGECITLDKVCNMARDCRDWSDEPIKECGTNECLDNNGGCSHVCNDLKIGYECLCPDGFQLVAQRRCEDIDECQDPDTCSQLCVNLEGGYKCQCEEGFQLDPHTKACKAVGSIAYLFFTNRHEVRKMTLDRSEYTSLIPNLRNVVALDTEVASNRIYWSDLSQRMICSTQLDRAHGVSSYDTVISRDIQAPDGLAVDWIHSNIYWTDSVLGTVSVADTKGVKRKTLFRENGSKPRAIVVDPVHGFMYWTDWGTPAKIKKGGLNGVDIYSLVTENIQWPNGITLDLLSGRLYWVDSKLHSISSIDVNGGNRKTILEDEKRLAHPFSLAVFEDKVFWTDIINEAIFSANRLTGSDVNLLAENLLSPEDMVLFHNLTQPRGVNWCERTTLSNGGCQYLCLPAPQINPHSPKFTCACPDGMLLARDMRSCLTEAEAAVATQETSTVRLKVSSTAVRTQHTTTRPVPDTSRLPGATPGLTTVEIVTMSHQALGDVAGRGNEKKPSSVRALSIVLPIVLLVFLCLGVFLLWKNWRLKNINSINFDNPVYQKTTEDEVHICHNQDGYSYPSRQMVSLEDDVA
The target of test [6] is MBP235 (membrane binding protein of ~235 kDa: MBP200 plus noncovalently bound subunit(s) of ~35 kDa) (human). Description: quantitative ligand blot, Scatchard. The following applies: scale: ng apo very low density lipoprotein/mg cell protein.
Test [7] concerns the target MBP200 (membrane binding protein of ~200 kDa; human monocyte-macrophage apoB48 receptor, apoB48R) (human) (UniProt Q0VD83). Description: quantitative ligand blot, Scatchard. Particulars: scale: ng apo very low density lipoprotein/mg cell protein.
In test [8] the target is T1, apoE- and lipoprotein lipase-independent TGRLP receptor (apoB48R) on the surface of THP-1 monocyte-macrophages (human). Description: binding of 125I-HTG-VLDL at 5 µg/ml to THP-1 macrophages, 4 °C.
For test [9] the target is unchanged. Description: specific binding of the 125I-lipoprotein to THP-1 macrophages, 4 °C.
Test [10] shares this target. Description: competition with 125I-HTG-VLDL1 for THP-1 macrophages, 4 °C, lactoferrin 500 µg/ml.
The target is the same in test [11]. Description: competition with 125I-tryp-VLDL1 for THP-1 macrophages, 4 °C, lactoferrin 100 µg/ml.
Test [12] concerns the target hypertriglyceridemic very low density lipoprotein Sf100-400 (HTG-VLDL) (human) (UniProt P04114). Description: competitive ligand blot: binding of biotinylated HTG-VLDL to MBP200 and MBP235, control IgG 400 µg/ml.

Chain of lactoferrin (P02788 20-710): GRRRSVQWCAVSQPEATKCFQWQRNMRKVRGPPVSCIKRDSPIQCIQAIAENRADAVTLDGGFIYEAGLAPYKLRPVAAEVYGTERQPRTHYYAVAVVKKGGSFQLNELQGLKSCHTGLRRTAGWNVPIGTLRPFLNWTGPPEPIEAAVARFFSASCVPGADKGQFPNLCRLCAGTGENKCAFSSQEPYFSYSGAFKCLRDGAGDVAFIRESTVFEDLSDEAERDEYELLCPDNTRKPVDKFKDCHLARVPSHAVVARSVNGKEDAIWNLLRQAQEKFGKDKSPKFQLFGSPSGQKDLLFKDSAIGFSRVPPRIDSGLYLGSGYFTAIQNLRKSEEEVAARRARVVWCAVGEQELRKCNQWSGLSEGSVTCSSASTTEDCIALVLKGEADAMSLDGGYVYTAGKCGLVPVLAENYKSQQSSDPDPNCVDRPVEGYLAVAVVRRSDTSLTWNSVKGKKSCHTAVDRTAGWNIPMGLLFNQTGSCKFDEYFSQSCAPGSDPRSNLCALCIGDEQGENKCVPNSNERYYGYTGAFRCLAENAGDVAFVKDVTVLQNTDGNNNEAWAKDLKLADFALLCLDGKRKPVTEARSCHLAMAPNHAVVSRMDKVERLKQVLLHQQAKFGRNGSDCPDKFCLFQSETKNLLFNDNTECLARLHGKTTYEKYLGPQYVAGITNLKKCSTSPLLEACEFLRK

In the case of Unlabeled VLDL (20x), P04114 28-4563, the Percent Inhibition in [1], in test [2] and in test [3] was 100% each time.
For the substance “hypertriglyceridemic very low density lipoprotein Sf100-400 (HTG-VLDL) (from UniProt P04114 28-4563; P04114 28-2179; P02649 19-317; P02656 21-99)”, the Bmax came to 160 in test [4], 66 in [6] and 96 in [7]. Also, the Kd in [4] was 1.4 µg/mL. This substance also returned a specific binding activity (ng/mg fibroblast cell protein) in test [5] of 237. In addition, the specific binding activity (ng/mg THP-1 cell protein) in test [8] was determined as 24.
In test [9], “trypsinized VLDL Sf100-400, devoid of apoE (tryp-VLDL) (from UniProt P04114 28-4563)” yielded a specific binding (0% inhibition) (fmol/mg cell protein) of 140.
The same measure, in the same setting: the value for “trypsinized VLDL2 (tryp-VLDL2) (from UniProt P04114 28-4563)” was 20.
Consider lactoferrin, for which the Percent Inhibition in test [10] was 5%; in test [11] it was 4%.
Take preimmune IgG (rabbit 1325) (antibody): the percent of binding blocked in [12] amounted to 25%.
